Assay results: PMC4228697

Assays:
Assay in all cases: SPR
[1] = target: CCR2 (wheat-germ proteoliposome) (human) (UniProt P41597)
[2] = target: CXCR2 (wheat-germ proteoliposome) (human) (UniProt P25025)
[3] = target: CXCR1 (wheat-germ proteoliposome) (human) (UniProt P25024)
[4] = target: C5aR (wheat-germ proteoliposome) (human) (UniProt P21730)
UniProt P21730, sequence (P21730 whole entry): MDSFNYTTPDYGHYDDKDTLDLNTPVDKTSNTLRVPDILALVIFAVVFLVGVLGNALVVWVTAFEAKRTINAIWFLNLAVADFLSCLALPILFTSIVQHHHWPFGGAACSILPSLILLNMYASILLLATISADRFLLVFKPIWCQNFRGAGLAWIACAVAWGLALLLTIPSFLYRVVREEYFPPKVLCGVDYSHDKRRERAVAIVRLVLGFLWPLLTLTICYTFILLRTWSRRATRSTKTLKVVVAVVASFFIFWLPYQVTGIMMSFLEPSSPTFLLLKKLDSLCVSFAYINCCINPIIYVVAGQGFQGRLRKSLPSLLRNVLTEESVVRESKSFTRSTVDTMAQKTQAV

UniProt P25025, sequence (P25025 whole entry): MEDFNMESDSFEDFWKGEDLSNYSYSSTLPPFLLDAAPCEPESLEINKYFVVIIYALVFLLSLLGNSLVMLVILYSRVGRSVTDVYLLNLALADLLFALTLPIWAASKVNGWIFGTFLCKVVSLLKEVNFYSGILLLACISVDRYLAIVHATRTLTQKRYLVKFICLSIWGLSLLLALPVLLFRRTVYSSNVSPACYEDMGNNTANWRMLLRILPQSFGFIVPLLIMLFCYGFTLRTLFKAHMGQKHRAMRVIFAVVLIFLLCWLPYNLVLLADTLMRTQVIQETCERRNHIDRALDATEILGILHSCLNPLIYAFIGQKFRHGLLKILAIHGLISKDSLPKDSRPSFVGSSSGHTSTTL
UniProt P25024, sequence (P25024 whole entry): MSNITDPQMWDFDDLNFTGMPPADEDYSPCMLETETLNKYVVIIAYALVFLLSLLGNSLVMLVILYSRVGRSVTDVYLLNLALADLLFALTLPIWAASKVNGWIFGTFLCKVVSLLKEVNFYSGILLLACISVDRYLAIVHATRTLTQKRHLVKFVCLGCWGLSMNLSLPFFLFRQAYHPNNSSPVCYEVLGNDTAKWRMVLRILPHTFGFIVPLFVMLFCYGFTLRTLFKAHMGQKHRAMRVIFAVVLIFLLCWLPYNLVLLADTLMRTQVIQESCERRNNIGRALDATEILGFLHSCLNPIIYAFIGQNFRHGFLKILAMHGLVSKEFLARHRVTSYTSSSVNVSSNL

Substance	Kd [1] [nM]	Kd [2] [nM]	Kd [3] [nM]	Kd [4] [nM]
MCP-1 (from UniProt P13500 24-99) (ligand)	0.84	–	–	–
γ-Hemolysin component HlgA (from UniProt P0A074 30-309) (natural protein)	3.51	27.2	5.69	–
γ-Hemolysin component HlgC (from UniProt Q07227 30-315) (natural protein)	–	–	–	5.64
